Test results reported in patent US20220308061A1.

Target: NY-ESO-1 peptide presented in the stimulated PBMC culture
Experiment: cell-based or functional assay

- percent of CD8+ T cells CD137+/NGFR+ after antigen stimulation (% of CD8+ T cells): 0.69
- percent of CD8+ T cells IFNγ+/NGFR+ after antigen stimulation (% of CD8+ T cells): 0.47
- percent of CD8+ T cells TNFα+/NGFR+ after antigen stimulation (% of CD8+ T cells): 0.41
Substance: NY-ESO TCR (clone 1G4)
